Source: paper PMC8565348

Assays:
[1] = target: untagged BrxU (Escherichia fergusonii ATCC 35469); assay: SEC; analytical SEC, Superdex 200 Increase 5/150, 20 mM Tris-HCl pH 7.9, 150 mM NaCl; 500 nM BrxU pre-incubated at 37°C for 15 min; no nucleotide, no MgSO4; dimer to monomers
[2] = target: His6-BrxU WT (Escherichia fergusonii ATCC 35469); assay: SEC; analytical SEC, Superdex 200 Increase 5/150, 20 mM Tris-HCl pH 7.9, 150 mM NaCl; 500 nM BrxU pre-incubated at 37°C for 15 min with 10 mM MgSO4, no nucleotide; dimer to monomers

Row | Substance | stoichiometry N [1] | stoichiometry N [2]
1 | untagged BrxU (enzyme) | 2 | 
2 | His6-BrxU WT (enzyme) |  | 2
